Tests used:
PTg S2 subunit = PTg S2 subunit (Bordetella pertussis, UniProt P04978); assay: cryo-EM structure
PTg S3 subunit = PTg S3 subunit (Bordetella pertussis, UniProt P04979); assay: cryo-EM structure
[1] = target: Pertussis toxin (PT), enzymatically active (Bordetella pertussis; strain of bought …, UniProt P04977;P04978;P04979;P0A3R5;P04981); assay: ELISA
PTg S5 subunit [2] = target: PTg S5 subunit (Bordetella pertussis, UniProt P04981); assay: cryo-EM structure
PTg S5 subunit [3] = target: T1, PTg S5 subunit (Bordetella pertussis, UniProt P04981 35-133); assay: cryo-EM structure
T1 sequence: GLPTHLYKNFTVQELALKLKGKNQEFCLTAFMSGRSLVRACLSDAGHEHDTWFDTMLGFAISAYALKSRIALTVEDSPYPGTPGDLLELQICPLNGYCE

Sequence of Pertussis toxin (PT), enzymatically active (P04978 28-226, chain 2 of 3): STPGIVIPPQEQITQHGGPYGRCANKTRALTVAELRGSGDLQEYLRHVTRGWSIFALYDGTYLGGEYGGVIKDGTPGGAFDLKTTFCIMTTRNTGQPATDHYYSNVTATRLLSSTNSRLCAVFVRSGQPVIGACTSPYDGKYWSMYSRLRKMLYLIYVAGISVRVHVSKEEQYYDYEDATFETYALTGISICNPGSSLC
Sequence of Pertussis toxin (PT), enzymatically active (P04979 29-227, chain 3 of 3): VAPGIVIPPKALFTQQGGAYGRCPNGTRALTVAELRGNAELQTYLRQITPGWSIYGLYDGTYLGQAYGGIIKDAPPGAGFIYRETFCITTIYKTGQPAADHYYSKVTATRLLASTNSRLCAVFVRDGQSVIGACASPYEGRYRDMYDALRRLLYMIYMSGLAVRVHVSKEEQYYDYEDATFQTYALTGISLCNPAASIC
Sequence of Pertussis toxin (PT), enzymatically active (P0A3R5 43-152, chain 4 of 3): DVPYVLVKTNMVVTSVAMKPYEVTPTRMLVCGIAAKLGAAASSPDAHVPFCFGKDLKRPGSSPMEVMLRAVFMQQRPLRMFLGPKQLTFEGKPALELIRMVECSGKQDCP
Sequence of PTg S2 subunit (P04978 28-226): as the sequence (P04978 28-226, chain 2 of 3) above
Sequence of PTg S3 subunit (P04979 29-227): as the sequence (P04979 29-227, chain 3 of 3) above

B1: hu11E6 Fab (Fab, V domains shown)
VH: EVQVVESGGGLVQPGRSLRLSCTTSGFTFTDYYVSWVRQAPGKALEWLGFIRNKVNGYTTEFSSSVKGRFTISRDNSKSILYLQMNSLKIEDTAVYYCARVSYYGRGWYFDYWGQGTTLTVSS
VL: DIVMTQSPSSLSASVGDRVTISCRASQDIDNYLSWFQQKPGGTVKLLIYYTSRLHSGVPSRFSGSGSGTDYTLTISSLQPEDIATYFCQQGNTFPWTFGGGTKLEIK
B1: binds (PTg S2 subunit); binds (PTg S3 subunit).

B2: hu1B7mut IgG (hu1B7 heavy chain S56A, Q61A, Q64A) (antibody, V domains shown)
VH: QVQLVQSGAEVKKPGASVKVSCKASGYKFTSYWMHWVRQAPGQGLEWIGNIFPGSGATNYAAKFAGRVTLTVDTSTSTAYMELSSLRSEDTAVYYCTRWLSGAYFDYWGQGTTVTVSS
VL: QIVLTQSPATLSVSPGERVTLTCSASSSVSFMYWYQQKPGRAPKPLIYLTSNLPSGVPARFSGSGSGTSYTLTINSLEAEDAATYYCQQWSSHPPTFGSGTKLEIK
B2: binds [1].

B3: hu1B7 IgG (antibody, V domains shown)
VH: QVQLVQSGAEVKKPGASVKVSCKASGYKFTSYWMHWVRQAPGQGLEWIGNIFPGSGSTNYAQKFQGRVTLTVDTSTSTAYMELSSLRSEDTAVYYCTRWLSGAYFDYWGQGTTVTVSS
VL: QIVLTQSPATLSVSPGERVTLTCSASSSVSFMYWYQQKPGRAPKPLIYLTSNLPSGVPARFSGSGSGTSYTLTINSLEAEDAATYYCQQWSSHPPTFGSGTKLEIK
B3: binds [1].

B4: hu1B7 Fab (Fab, V domains shown)
VH: QVQLVQSGAEVKKPGASVKVSCKASGYKFTSYWMHWVRQAPGQGLEWIGNIFPGSGSTNYAQKFQGRVTLTVDTSTSTAYMELSSLRSEDTAVYYCTRWLSGAYFDYWGQGTTVTVSS
VL: QIVLTQSPATLSVSPGERVTLTCSASSSVSFMYWYQQKPGRAPKPLIYLTSNLPSGVPARFSGSGSGTSYTLTINSLEAEDAATYYCQQWSSHPPTFGSGTKLEIK
B4: binds (PTg S5 subunit [2]).

B5: PTg S1 subunit ([change], [change]) (natural protein)
chain: DDPPATVYKYDSRPPEDVFQNGFTAWGNNDNVLDHLTGRSCQVGSSNSAFVSTSSSRRYTEVYLEHRMQEAVEAERAGRGTGHFIGYIYEVRADNNFYGAASSYFEYVDTYGDNAGRILAGALATYQSGYLAHRRIPPENIRRVTRVYHNGITGETTTTEYSNARYVSQQTRANPNPYTSRRSVASIVGTLVRMAPVIGACMARQAESSEAMAAWSERAGEAMVLVYYESIAYSF
B5: binds (PTg S5 subunit [3]).
